First the molecules themselves.
B1: Protein PTHB1 (Homo sapiens), Q3SYG4 (parent)
chain: MSLFKARDWWSTILGDKEEFDQGCLCLANVDNSGNGQDKIIVGSFMGYLRIFSPHPAKTGDGAQAEDLLLEVDLRDPVLQVEVGKFVSGTEMLHLAVLHSRKLCVYSVSGTLGNVEHGNQCQMKLMYEHNLQRTACNMTYGSFGGVKGRDLICIQSMDGMLMVFEQESYAFGRFLPGFLLPGPLAYSSRTDSFLTVSSCQQVESYKYQVLAFATDADKRQETEQQKLGSGKRLVVDWTLNIGEQALDICIVSFNQSASSVFVLGERNFFCLKDNGQIRFMKKLDWSPSCFLPYCSVSEGTINTLIGNHNNMLHIYQDVTLKWATQLPHIPVAVRVGCLHDLKGVIVTLSDDGHLQCSYLGTDPSLFQAPNVQSRELNYDELDVEMKELQKIIKDVNKSQGVWPMTEREDDLNVSVVVSPNFDSVSQATDVEVGTDLVPSVTVKVTLQNRVILQKAKLSVYVQPPLELTCDQFTFEFMTPDLTRTVSFSVYLKRSYTPSELEGNAVVSYSRPTDRNPDGIPRVIQCKFRLPLKLICLPGQPSKTASHKITIDTNKSPVSLLSLFPGFASQSDDDQVNVMGFHFLGGARITVLASKTSQRYRIQSEQFEDLWLITNELILRLQEYFEKQGVKDFACSFSGSIPLQEYFELIDHHFELRINGEKLEELLSERAVQFRAIQRRLLARFKDKTPAPLQHLDTLLDGTYKQVIALADAVEENQGNLFQSFTRLKSATHLVILLIALWQKLSADQVAILEAAFLPLQEDTQELGWEETVDAAISHLLKTCLSKSSKEQALNLNSQLNIPKDTSQLKKHITLLCDRLSKGGRLCLSTDAAAPQTMVMPGGCTTIPESDLEERSVEQDSTELFTNHRHLTAETPRPEVSPLQGVSE
partner: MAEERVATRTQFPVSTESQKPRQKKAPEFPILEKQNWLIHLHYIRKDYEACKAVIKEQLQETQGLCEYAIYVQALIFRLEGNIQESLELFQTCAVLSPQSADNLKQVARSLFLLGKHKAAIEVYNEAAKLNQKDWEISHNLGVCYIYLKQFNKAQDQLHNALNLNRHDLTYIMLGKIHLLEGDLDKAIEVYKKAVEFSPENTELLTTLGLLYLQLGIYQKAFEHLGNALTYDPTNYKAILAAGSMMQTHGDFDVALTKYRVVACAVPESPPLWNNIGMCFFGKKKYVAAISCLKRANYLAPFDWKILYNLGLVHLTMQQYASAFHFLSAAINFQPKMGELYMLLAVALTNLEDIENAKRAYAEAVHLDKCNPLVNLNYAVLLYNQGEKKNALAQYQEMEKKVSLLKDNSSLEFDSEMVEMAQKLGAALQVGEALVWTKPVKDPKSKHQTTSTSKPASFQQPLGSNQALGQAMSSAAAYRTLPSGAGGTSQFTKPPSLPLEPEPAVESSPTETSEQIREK

This assay covers variants of B1. As to conditions: with bbs4_human BBS4, Q96RK4.
Take P564E: the “effect of a mutation on the interaction” value was “with no effect”.

With P564S, the “effect of a mutation on the interaction” value is given as “disrupting interaction strength”.

For S570E, the “effect of a mutation on the interaction” value is “with no effect”.

Turning to S570A, the “effect of a mutation on the interaction” value is “with no effect”.

Consider S570K, for which the “effect of a mutation on the interaction” value is “with no effect”.

Take A567E: the “effect of a mutation on the interaction” value is listed as “with no effect”.

On to A567K, for which the “effect of a mutation on the interaction” value was “with no effect”.

Turning to S545E, the “effect of a mutation on the interaction” value was “with no effect”.

As for S545K, the “effect of a mutation on the interaction” value is recorded as “with no effect”.

As for S545A, the “effect of a mutation on the interaction” value is given as “with no effect”.

A544K: the “effect of a mutation on the interaction” value was “with no effect”.

Consider A544E, for which the “effect of a mutation on the interaction” value is “with no effect”.

On to K547E, for which the “effect of a mutation on the interaction” value is given as “with no effect”.

On to K547A, for which the “effect of a mutation on the interaction” value is “with no effect”.

Consider G584E, for which the “effect of a mutation on the interaction” value was “disrupting interaction strength”.

On to G584A, for which the “effect of a mutation on the interaction” value was “with no effect”.

On to G584K, for which the “effect of a mutation on the interaction” value is “with no effect”.

As for M578E, the “effect of a mutation on the interaction” value is on record as “with no effect”.

In the case of M578A, the “effect of a mutation on the interaction” value is reported as “with no effect”.

As to M578K, the “effect of a mutation on the interaction” value was “with no effect”.

As for H546E, the “effect of a mutation on the interaction” value is listed as “with no effect”.

With H546K, the “effect of a mutation on the interaction” value is listed as “with no effect”.

For the variant H546A, the “effect of a mutation on the interaction” value was “with no effect”.

Regarding D572N, the “effect of a mutation on the interaction” value was “disrupting interaction strength”.

For the variant D572A, the “effect of a mutation on the interaction” value is given as “with no effect”.

D572E: the “effect of a mutation on the interaction” value is listed as “with no effect”.

As to D572K, the “effect of a mutation on the interaction” value is listed as “with no effect”.

Consider P556A, for which the “effect of a mutation on the interaction” value is given as “with no effect”.

Turning to P556E, the “effect of a mutation on the interaction” value was “with no effect”.

Consider P556K, for which the “effect of a mutation on the interaction” value is reported as “with no effect”.

As to L531A, the “effect of a mutation on the interaction” value is on record as “with no effect”.

For L531E, the “effect of a mutation on the interaction” value is “with no effect”.

For the variant L531K, the “effect of a mutation on the interaction” value is “with no effect”.

On to H581A, for which the “effect of a mutation on the interaction” value is “with no effect”.

Regarding H581K, the “effect of a mutation on the interaction” value is on record as “with no effect”.

H581E: the “effect of a mutation on the interaction” value is on record as “with no effect”.

On to I534E, for which the “effect of a mutation on the interaction” value was “with no effect”.

As for I534A, the “effect of a mutation on the interaction” value was “with no effect”.

Regarding I534K, the “effect of a mutation on the interaction” value was “with no effect”.

With L529E, the “effect of a mutation on the interaction” value was “with no effect”.

In the case of L529A, the “effect of a mutation on the interaction” value is “with no effect”.

As to L529K, the “effect of a mutation on the interaction” value is reported as “with no effect”.

Regarding L529P, the “effect of a mutation on the interaction” value is recorded as “disrupting interaction strength”.

Take K542A: the “effect of a mutation on the interaction” value is recorded as “with no effect”.

As to K542E, the “effect of a mutation on the interaction” value is recorded as “with no effect”.

Take S558E: the “effect of a mutation on the interaction” value is on record as “with no effect”.

In the case of S558A, the “effect of a mutation on the interaction” value is given as “with no effect”.

As to S558K, the “effect of a mutation on the interaction” value is given as “with no effect”.

Turning to N553K, the “effect of a mutation on the interaction” value is given as “with no effect”.

Regarding N553E, the “effect of a mutation on the interaction” value is given as “with no effect”.

For N553A, the “effect of a mutation on the interaction” value was “with no effect”.

V575K: the “effect of a mutation on the interaction” value is reported as “with no effect”.

On to V575A, for which the “effect of a mutation on the interaction” value is “with no effect”.

In the case of V575E, the “effect of a mutation on the interaction” value is “with no effect”.

As for V577E, the “effect of a mutation on the interaction” value is listed as “with no effect”.

For the variant V577K, the “effect of a mutation on the interaction” value is listed as “with no effect”.

For V577A, the “effect of a mutation on the interaction” value is listed as “with no effect”.

With L533K, the “effect of a mutation on the interaction” value is “with no effect”.

On to L533E, for which the “effect of a mutation on the interaction” value is recorded as “with no effect”.

In the case of L533A, the “effect of a mutation on the interaction” value was “with no effect”.

G538A: the “effect of a mutation on the interaction” value is on record as “with no effect”.

In the case of G538K, the “effect of a mutation on the interaction” value is recorded as “with no effect”.

Consider G538E, for which the “effect of a mutation on the interaction” value is “with no effect”.

Consider T549K, for which the “effect of a mutation on the interaction” value is on record as “with no effect”.

Regarding T549A, the “effect of a mutation on the interaction” value is listed as “with no effect”.

T549E: the “effect of a mutation on the interaction” value is on record as “with no effect”.

As to N576K, the “effect of a mutation on the interaction” value is on record as “with no effect”.

Regarding N576E, the “effect of a mutation on the interaction” value is “with no effect”.

As for N576A, the “effect of a mutation on the interaction” value is recorded as “with no effect”.

L562K: the “effect of a mutation on the interaction” value is “with no effect”.

Regarding L562A, the “effect of a mutation on the interaction” value is “with no effect”.

For L562E, the “effect of a mutation on the interaction” value is recorded as “with no effect”.

Take Q539E: the “effect of a mutation on the interaction” value is “with no effect”.

In the case of Q539K, the “effect of a mutation on the interaction” value is reported as “with no effect”.

For the variant Q539A, the “effect of a mutation on the interaction” value is reported as “with no effect”.

I550K: the “effect of a mutation on the interaction” value is “with no effect”.

As for I550A, the “effect of a mutation on the interaction” value is recorded as “with no effect”.

In the case of I550E, the “effect of a mutation on the interaction” value is listed as “with no effect”.

Regarding F582E, the “effect of a mutation on the interaction” value was “with no effect”.

Take F582K: the “effect of a mutation on the interaction” value was “with no effect”.

Turning to F582A, the “effect of a mutation on the interaction” value was “with no effect”.

On to S568K, for which the “effect of a mutation on the interaction” value is “with no effect”.

As to S568E, the “effect of a mutation on the interaction” value was “with no effect”.

As for S568A, the “effect of a mutation on the interaction” value was “with no effect”.

With L559A, the “effect of a mutation on the interaction” value is given as “with no effect”.

For L559E, the “effect of a mutation on the interaction” value is on record as “with no effect”.

Consider L559K, for which the “effect of a mutation on the interaction” value is “with no effect”.

Take L559F: the “effect of a mutation on the interaction” value is “disrupting interaction strength”.

As for L583A, the “effect of a mutation on the interaction” value is on record as “with no effect”.

Turning to L583E, the “effect of a mutation on the interaction” value was “with no effect”.

Regarding L583K, the “effect of a mutation on the interaction” value was “with no effect”.
